{"source": "paper PMC3262080", "molecular_target": "HuR (UniProt Q15717 1-326)", "sequence (Q15717 whole entry)": "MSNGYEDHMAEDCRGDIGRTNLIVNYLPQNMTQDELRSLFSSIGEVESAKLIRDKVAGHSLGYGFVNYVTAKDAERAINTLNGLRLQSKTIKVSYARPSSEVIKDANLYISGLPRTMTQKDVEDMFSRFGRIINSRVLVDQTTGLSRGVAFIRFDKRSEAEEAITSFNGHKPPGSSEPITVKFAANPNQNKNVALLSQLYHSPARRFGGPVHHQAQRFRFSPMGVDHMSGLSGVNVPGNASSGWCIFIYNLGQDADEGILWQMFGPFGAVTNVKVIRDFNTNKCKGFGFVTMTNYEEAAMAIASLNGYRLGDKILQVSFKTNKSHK", "assay": "fluorescence anisotropy", "data": [{"binder": "UAGCAGCACGUAAAUAUUGGCG (ssRNA)", "note": "[miR-16 (mature, 5'TMR-labeled)]", "values": [{"measurement": "Kd", "value": "120 ± 9", "unit": "nM"}]}]}
